In article PMC3776929 (Cell, 2013):

T1: Swc2 (S. cerevisiae, UniProt Q03388 1-795)
T1 construct: Swc2, C-Module subunit of SWR1, S. cerevisiae; source: endogenous, S. cerevisiae; co-purified in the SWR1 complex
T1 sequence (looked up): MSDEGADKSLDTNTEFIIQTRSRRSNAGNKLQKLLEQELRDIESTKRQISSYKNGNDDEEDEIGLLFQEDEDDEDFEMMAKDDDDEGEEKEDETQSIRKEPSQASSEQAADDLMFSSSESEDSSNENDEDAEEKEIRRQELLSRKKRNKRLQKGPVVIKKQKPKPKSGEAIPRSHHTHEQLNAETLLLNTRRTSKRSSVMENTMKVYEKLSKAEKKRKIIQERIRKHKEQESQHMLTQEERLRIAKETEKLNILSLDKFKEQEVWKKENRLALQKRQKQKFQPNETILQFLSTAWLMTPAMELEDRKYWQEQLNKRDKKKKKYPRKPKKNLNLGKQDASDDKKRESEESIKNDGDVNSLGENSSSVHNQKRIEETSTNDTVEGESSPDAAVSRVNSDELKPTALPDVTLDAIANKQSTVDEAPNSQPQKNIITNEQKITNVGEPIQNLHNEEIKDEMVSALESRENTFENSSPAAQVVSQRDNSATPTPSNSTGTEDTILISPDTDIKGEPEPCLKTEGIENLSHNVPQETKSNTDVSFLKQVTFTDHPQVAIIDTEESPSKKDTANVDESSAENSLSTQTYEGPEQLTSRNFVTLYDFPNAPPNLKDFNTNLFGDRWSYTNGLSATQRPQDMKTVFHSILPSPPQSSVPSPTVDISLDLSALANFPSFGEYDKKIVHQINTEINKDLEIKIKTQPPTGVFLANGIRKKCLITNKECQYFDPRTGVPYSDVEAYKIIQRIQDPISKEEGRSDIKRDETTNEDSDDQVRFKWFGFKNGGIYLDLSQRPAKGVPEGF

B1: Swc3 (natural protein, S. cerevisiae, UniProt P31376 1-625, looked up)
chain: MPAVLRTRSKESSIEQKPASRTRTRSRRGKRGRDDDDDDDDEESDDAYDEVGNDYDEYASRAKLATNRPFEIVAGLPASVELPNYNSSLTHPQSIKNSGVLYDSLVSSRRTWVQGEMFELYWRRPKKIVSESTPAATESPTSGTIPLIRDKMQKMCDCVMSGGPHTFKVRLFILKNDKIEQKWQDEQELKKKEKELKRKNDAEAKRLRMEERKRQQMQKKIAKEQKLQLQKENKAKQKLEQEALKLKRKEEMKKLKEQNKNKQGSPSSSMHDPRMIMNLNLMAQEDPKLNTLMETVAKGLANNSQLEEFKKFIEIAKKRSLEENPVNKRPSVTTTRPAPPSKAKDVAEDHRLNSITLVKSSKTAATEPEPKKADDENAEKQQSKEAKTTAESTQVDVKKEEEDVKEKGVKSEDTQKKEDNQVVPKRKRRKNAIKEDKDMQLTAFQQKYVQGAEIILEYLEFTHSRYYLPKKSVVEFLEDTDEIIISWIVIHNSKEIEKFKTKKIKAKLKADQKLNKEDAKPGSDVEKEVSFNPLFEADCPTPLYTPMTMKLSGIHKRFNQIIRNSVSPMEEVVKEMEKILQIGTRLSGYNLWYQLDGYDDEALSESLRFELNEWEHAMRSRRHKR
notes: Swc3, C-Module subunit of SWR1, S. cerevisiae; source: endogenous, S. cerevisiae; co-purified in the SWR1 complex
B2: Arp4 (natural protein, S. cerevisiae, UniProt P80428 1-489, looked up)
chain: MSNAALQVYGGDEVSAVVIDPGSYTTNIGYSGSDFPQSILPSVYGKYTADEGNKKIFSEQSIGIPRKDYELKPIIENGLVIDWDTAQEQWQWALQNELYLNSNSGIPALLTEPVWNSTENRKKSLEVLLEGMQFEACYLAPTSTCVSFAAGRPNCLVVDIGHDTCSVSPIVDGMTLSKSTRRNFIAGKFINHLIKKALEPKEIIPLFAIKQRKPEFIKKTFDYEVDKSLYDYANNRGFFQECKETLCHICPTKTLEETKTELSSTAKRSIESPWNEEIVFDNETRYGFAEELFLPKEDDIPANWPRSNSGVVKTWRNDYVPLKRTKPSGVNKSDKKVTPTEEKEQEAVSKSTSPAANSADTPNETGKRPLEEEKPPKENNELIGLADLVYSSIMSSDVDLRATLAHNVVLTGGTSSIPGLSDRLMTELNKILPSLKFRILTTGHTIERQYQSWLGGSILTSLGTFHQLWVGKKEYEEVGVERLLNDRFR
notes: Arp4, actin-related protein, N-Module subunit of SWR1, S. cerevisiae; source: endogenous, S. cerevisiae; co-purified in the SWR1 complex

Tests used:
Ino80 = target: T2, Ino80 (UniProt P53115 1-1489); experiment: co-IP; INO80 complex purified by affinity and glycerol gradient, resolved on 4%-12% Bis-Tris gels in MOPS buffer; band intensities normalised for protein size; conditions: partners not purified
T2 construct: Ino80, catalytic subunit of the INO80 complex
T2 sequence (P53115 whole entry): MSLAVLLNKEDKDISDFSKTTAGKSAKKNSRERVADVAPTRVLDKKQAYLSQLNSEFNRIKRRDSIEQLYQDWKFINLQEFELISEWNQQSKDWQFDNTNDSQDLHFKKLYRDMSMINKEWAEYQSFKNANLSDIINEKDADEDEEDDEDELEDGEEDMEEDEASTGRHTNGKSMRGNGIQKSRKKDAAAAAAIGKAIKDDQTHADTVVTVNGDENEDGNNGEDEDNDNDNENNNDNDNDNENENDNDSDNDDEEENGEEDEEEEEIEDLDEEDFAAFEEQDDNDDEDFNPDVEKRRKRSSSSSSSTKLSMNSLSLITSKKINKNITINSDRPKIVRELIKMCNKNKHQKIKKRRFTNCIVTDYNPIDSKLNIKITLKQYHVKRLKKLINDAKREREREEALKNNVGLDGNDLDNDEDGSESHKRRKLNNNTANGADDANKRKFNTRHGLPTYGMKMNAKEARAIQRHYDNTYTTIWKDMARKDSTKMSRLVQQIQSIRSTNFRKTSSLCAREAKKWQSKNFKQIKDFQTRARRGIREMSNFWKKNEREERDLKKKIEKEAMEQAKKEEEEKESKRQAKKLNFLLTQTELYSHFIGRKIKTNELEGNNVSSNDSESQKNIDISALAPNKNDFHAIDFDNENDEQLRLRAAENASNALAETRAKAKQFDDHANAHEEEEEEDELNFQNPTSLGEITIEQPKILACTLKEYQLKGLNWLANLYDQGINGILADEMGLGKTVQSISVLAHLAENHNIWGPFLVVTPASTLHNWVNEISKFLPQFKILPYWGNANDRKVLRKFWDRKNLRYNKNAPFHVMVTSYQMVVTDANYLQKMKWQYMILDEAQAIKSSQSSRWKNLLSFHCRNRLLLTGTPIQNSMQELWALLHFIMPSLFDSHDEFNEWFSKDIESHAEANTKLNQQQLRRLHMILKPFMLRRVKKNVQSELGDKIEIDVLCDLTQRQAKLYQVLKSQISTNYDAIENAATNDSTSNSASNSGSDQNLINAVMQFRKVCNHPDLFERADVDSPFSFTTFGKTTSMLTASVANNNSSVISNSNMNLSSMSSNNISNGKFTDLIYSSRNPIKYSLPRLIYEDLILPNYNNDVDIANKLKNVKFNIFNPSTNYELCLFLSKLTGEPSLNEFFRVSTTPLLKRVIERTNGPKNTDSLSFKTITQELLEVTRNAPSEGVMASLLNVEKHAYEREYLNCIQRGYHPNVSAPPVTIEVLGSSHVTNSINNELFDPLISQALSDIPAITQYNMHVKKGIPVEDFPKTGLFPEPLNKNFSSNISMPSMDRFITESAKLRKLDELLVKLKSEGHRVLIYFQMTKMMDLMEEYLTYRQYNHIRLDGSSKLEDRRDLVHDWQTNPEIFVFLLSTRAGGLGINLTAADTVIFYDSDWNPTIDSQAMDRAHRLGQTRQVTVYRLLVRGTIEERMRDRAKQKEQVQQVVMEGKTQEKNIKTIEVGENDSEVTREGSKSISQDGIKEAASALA

[1] = target: T3, Swr1, FLAG-tagged catalytic subunit of the SWR1 complex (S. cerevisiae, UniProt Q05471 1-1514); experiment: co-IP; FLAG affinity purification of SWR1 (or a subcomplex) from S. cerevisiae, eluted with 3× FLAG peptide; SDS-PAGE (4%-12% Bis-Tris), Coomassie or SYPRO Orange stain; band intensities normalised for protein size for the stoichiometry; conditions: partners not purified
T3 construct: Swr1, catalytic ATPase subunit of the SWR1 complex, S. cerevisiae; HSA domain in the N-terminal half, split ATPase domain with long insert in the C-terminal half; also called Swr1-3xFLAG; Swr1 ATPase
T3 sequence (Q05471 whole entry, the tested form may be a part, one chain of several): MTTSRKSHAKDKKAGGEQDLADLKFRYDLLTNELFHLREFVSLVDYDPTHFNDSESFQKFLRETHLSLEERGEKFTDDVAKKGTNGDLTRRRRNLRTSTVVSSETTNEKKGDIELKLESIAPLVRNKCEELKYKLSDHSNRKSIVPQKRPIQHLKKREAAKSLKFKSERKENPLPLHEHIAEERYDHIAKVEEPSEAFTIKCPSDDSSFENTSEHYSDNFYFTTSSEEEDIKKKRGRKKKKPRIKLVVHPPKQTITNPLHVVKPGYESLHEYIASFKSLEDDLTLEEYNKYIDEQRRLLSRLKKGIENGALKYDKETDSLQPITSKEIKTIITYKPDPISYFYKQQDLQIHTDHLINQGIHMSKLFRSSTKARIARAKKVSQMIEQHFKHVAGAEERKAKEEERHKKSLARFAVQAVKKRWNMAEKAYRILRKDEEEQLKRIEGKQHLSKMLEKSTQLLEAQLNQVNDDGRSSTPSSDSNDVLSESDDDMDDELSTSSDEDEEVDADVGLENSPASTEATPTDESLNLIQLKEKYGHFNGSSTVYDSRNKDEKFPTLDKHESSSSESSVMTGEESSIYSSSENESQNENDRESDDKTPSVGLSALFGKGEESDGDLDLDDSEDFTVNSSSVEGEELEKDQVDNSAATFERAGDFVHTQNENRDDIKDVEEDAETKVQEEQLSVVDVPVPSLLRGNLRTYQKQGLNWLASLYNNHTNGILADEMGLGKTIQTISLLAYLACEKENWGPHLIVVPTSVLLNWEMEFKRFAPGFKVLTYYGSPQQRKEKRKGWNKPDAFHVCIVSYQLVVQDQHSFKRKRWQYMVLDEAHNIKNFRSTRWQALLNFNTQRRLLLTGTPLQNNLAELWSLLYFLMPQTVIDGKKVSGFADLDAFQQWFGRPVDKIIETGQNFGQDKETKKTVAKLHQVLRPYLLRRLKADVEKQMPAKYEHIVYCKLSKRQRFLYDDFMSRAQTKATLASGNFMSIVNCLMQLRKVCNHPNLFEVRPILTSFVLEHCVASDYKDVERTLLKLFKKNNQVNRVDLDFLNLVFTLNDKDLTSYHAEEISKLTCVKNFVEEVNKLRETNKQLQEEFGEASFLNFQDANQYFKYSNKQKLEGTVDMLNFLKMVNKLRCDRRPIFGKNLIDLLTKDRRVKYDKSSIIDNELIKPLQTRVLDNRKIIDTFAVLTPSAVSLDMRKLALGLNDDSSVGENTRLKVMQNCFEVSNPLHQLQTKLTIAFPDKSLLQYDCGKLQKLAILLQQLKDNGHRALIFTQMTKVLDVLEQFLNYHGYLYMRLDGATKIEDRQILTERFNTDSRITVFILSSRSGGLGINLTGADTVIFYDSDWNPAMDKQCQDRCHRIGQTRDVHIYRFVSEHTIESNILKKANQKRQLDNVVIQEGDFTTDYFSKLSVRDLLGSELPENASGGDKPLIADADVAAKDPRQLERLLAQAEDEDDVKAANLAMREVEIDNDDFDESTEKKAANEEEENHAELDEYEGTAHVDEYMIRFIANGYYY

Swc2 = target: T1, Swc2; experiment: cross-linking; ∼45 μg affinity-purified SWR1 cross-linked with 1 mM DSS d0/d12 in SWR1 buffer, 37°C, 30 min; trypsin, SEC enrichment, LC-MS/MS, xQuest (CX-MS); conditions: both partners purified
[2] = target: T3, Swr1, FLAG-tagged catalytic subunit of …; experiment: as above; conditions: both partners purified
Arp4 = target: B2; experiment: as above; conditions: both partners purified
Swc3 = target: B1; experiment: as above; conditions: both partners purified

Binder | stoichiometry N (Ino80) | stoichiometry N [1] | binding result [2] | binding result (Arp4) | also measured
Rvb2 (natural protein, S. cerevisiae, UniProt Q12464 1-471, looked up, Rvb2, AAA+ ATPase, S. cerevisiae (YPL235W); also called AAA+ ATPase Rvb2; source: endogenous, S. cerevisiae; co-purified in the SWR1 and INO80 complexes) MSIQTSDPNETSDLKSLSLIAAHSHITGLGLDENLQPRPTSEGMVGQLQARRAAGVILKMVQNGTIAGRAVLVAGPPSTGKTALAMGVSQSLGKDVPFTAIAGSEIFSLELSKTEALTQAFRKSIGIKIKEETELIEGEVVEIQIDRSITGGHKQGKLTIKTTDMETIYELGNKMIDGLTKEKVLAGDVISIDKASGKITKLGRSFARSRDYDAMGADTRFVQCPEGELQKRKTVVHTVSLHEIDVINSRTQGFLALFTGDTGEIRSEVRDQINTKVAEWKEEGKAEIVPGVLFIDEVHMLDIECFSFINRALEDEFAPIVMMATNRGVSKTRGTNYKSPHGLPLDLLDRSIIITTKSYNEQEIKTILSIRAQEEEVELSSDALDLLTKTGVETSLRYSSNLISVAQQIAMKRKNNTVEVEDVKRAYLLFLDSARSVKYVQENESQYIDDQGNVQISIAKSADPDAMDTTE | ~3 | ~3 | – | – | –
Bdf1 (natural protein, S. cerevisiae, UniProt P35817 1-686, looked up, Bdf1, N-Module subunit of SWR1, S. cerevisiae; source: endogenous, S. cerevisiae; co-purified in the SWR1 complex) MTDITPVQNDVDVNGNNVNDDVSSNLKRPIDQGDPSNGLAEEENPANNQLHLKKARLDGDALTSSPAGLAENGIEGATLAANGENGYNATGSGAEDEQQGLKKEEGGQGTKQEDLDENSKQELPMEVPKEPAPAPPPEPDMNNLPQNPIPKHQQKHALLAIKAVKRLKDARPFLQPVDPVKLDIPFYFNYIKRPMDLSTIERKLNVGAYEVPEQITEDFNLMVNNSIKFNGPNAGISQMARNIQASFEKHMLNMPAKDAPPVIAKGRRSSAQEDAPIVIRRAQTHNGRPKRTIHPPKSKDIYPYESKKPKSKRLQQAMKFCQSVLKELMAKKHASYNYPFLEPVDPVSMNLPTYFDYVKEPMDLGTIAKKLNDWQYQTMEDFERDVRLVFKNCYTFNPDGTIVNMMGHRLEEVFNSKWADRPNLDDYDSDEDSRTQGDYDDYESEYSESDIDETIITNPAIQYLEEQLARMKVELQQLKKQELEKIRKERRLARGSKKRGKRSKGRSGSKNASSKGRRDKKNKLKTVVTYDMKRIITERINDLPTSKLERAIDIIKKSMPNISEDDEVELDLDTLDNHTILTLYNTFFRQYESSSGASNGLDGTSGVTRDASSLSPTSAGSRKRRSKALSQEEQSRQIEKIKNKLAILDSASPLSQNGSPGQIQSAAHNGFSSSSDDDVSSESEEE | – | – | – | – | binding result (Swc2): binds
Swc4 (natural protein, S. cerevisiae, UniProt P53201 1-476, looked up, Swc4, N-Module subunit of SWR1, S. cerevisiae; source: endogenous, S. cerevisiae; co-purified in the SWR1 complex) MSSSDIFDVLNIKQKSRSPTNGQVSVPSSSAANRPKPQVTGMQRELFNLLGENQPPVVIKSGNNFKEKMLSTSKPSPWSFVEFKANNSVTLRHWVKGSKELIGDTPKESPYSKFNQHLSIPSFTKEEYEAFMNENEGTQKSVESEKNHNENFTNEKKDESKNSWSFEEIEYLFNLCKKYDLRWFLIFDRYSYNNSRTLEDLKEKFYYTCRNYFKASDPSNPLLSSLNFSAEKEIERKKYLQRLLSRSAAEIAEEEALVVESKKFEMAAKRTLAERESLLRLLDSPHSDQTITQYLTSQGMSQLYNALLADKTRKRKHDLNIPENPWMKQQQQFAQHRQLQQLNVKKSEVKENLSPKKTKRQRQEMQTALKRKSESAYAEQLLKDFNSDERKALGVITHGEKLSPGVYLRSTKLSTFKPALQNKILAILQELSLPSRPVMPSFDVMERQEELLKKINTLIDLKKHVDKYEAGMSITK | – | – | binds | binds | –
B1 | – | – | binds | – | –
B2 | – | – | – | – | binding result (Swc3): binds
Rvb1 (natural protein, S. cerevisiae, UniProt Q03940 1-463, looked up, Rvb1, AAA+ ATPase, S. cerevisiae (YDR190C); also called AAA+ ATPase Rvb1; source: endogenous, S. cerevisiae; co-purified in the SWR1 and INO80 complexes) MVAISEVKENPGVNSSNSGAVTRTAAHTHIKGLGLDESGVAKRVEGGFVGQIEAREACGVIVDLIKAKKMSGRAILLAGGPSTGKTALALAISQELGPKVPFCPLVGSELYSVEVKKTETLMENFRRAIGLRIKETKEVYEGEVTELTPEDAENPLGGYGKTISHVIVGLKSAKGTKTLRLDPTIYESIQREKVSIGDVIYIEANTGAVKRVGRSDAYATEFDLETEEYVPLPKGEVHKKKEIVQDVTLHDLDVANARPQGGQDVISMMGQLLKPKKTEITEKLRQEVNKVVAKYIDQGVAELIPGVLFIDEVNMLDIEIFTYLNKALESNIAPVVVLASNRGMTTVRGTEDVISPHGVPPDLIDRLLIVRTLPYDKDEIRTIIERRATVERLQVESSALDLLATMGTETSLRYALQLLAPCGILAQTSNRKEIVVNDVNEAKLLFLDAKRSTKILETSANYL | ~3 | ~3 | – | binds | –
